Measured values taken from patent US20230340136A1, “TREATMENT OF CLL” (NOVARTIS AG, priority 2020, published 2023).

What was measured:
BTK^C481S = BTK^C481S (Homo sapiens, UniProt Q06187, C481S); conditions: cited from earlier work
[1] = Phase Ib study CVAY736Y2102: pharmacokinetics of VAY736; type: in vivo, human; conditions: in combination with ibrutinib
From the text: (§1) The dosing cycle is 28 days. […] During the dose expansion part of the study, ibrutinib will be continued at the same dose schedule as tolerated before study enrollment, see exclusion criteria above for additional information on dose level.

BAFF receptor = target: T1, BAFF receptor (Homo sapiens, UniProt Q96RJ3); experiment: Phase Ib study CVAY736Y2102: BAFF receptor occupancy; type: in vivo; conditions: VAY736 doses of 3 mg/kg or above
T1 construct: endogenous in cells; host or cells: B cells / tissue of CLL patients in study CVAY736Y2102 (for A6: simulated by a PK/PD model, not measured)
From the text: as §1

BAFF = experiment: Phase Ib study CVAY736Y2102: free (soluble) BAFF; set-up: species or system human; conditions: in vivo
From the text: as §1

Sequence of BTK^C481S (Q06187 whole entry C481S): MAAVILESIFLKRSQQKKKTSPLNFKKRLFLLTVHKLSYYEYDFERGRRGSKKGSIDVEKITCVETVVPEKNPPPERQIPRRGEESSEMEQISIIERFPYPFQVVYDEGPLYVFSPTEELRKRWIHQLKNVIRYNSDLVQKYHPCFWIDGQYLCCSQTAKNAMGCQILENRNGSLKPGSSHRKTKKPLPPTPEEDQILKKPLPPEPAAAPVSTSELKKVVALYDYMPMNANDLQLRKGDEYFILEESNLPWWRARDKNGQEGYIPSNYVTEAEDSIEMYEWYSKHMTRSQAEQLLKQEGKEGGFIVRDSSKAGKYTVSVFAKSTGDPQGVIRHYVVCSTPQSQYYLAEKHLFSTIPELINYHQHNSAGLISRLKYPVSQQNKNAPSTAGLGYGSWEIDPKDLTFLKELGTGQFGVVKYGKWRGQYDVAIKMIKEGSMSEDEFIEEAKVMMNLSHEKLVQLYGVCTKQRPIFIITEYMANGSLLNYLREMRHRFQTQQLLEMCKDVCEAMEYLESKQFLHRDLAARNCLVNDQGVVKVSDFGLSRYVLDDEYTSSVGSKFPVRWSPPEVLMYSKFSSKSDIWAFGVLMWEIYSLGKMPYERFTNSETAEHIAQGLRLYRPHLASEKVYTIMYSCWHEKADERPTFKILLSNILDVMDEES

Compound | activity against ibrutinib-resistant BTK^C481S mutation (BTK^C481S) | VAY736 concentration: dose dependence [1] | dose at which linear PK achieved [1] [mg/kg] | Tissue receptor occupancy (BAFF receptor) [%] | Free BAFF (BAFF)
C[C@H]1CN(C2COC2)CCN1c1ccc(Nc2cc(-c3ccnc(N4CCn5c(cc6c5CC(C)(C)C6)C4=O)c3CO)cn(C)c2=O)nc1 [fenebrutinib] | active against ibrutinib-resistant BTK^C481S |  |  |  | 
VAY736: non-fucosylated human IgG1 kappa anti-BAFFR antibody, heavy chain SEQ ID NO: 9, light chain SEQ ID NO: 10 |  | increased with dose | ≥ 3 | > 99 | accumulated to steady state with no dose relationship
